# Laboratory results reported in patent publication US20130245102, “NOVEL DNA TEMPLATES FOR SMALL RNA PRODUCTION IN MAMMALIAN CELLS” (Research Foundation of the City University of New York, published 2013).
# What was measured:
# [1] = system: RNA polymerase III (Homo sapiens); conditions: 90 min IVT from 100 nM coligo; 6 mM MgCl2; abolished by 120 ug/ml alpha-amanitin
# [2] = system: RNA polymerase III (Homo sapiens); conditions: HEK293T WCE transcription; mainly single round
# [3] = system: TS2126 RNA ligase 1 (Bacteriophage TS2126); conditions: 5' phosphate; splintless circularization, 2.5 mM MnCl2, 50 uM ATP, 60 C, 2 h
# RNA polymerase II = RNA polymerase II (UniProt P04050;P08518;P16370;P20433;P20434;P20435;P34087;P20436;P27999;P22139;P38902;P40 …); assay: in vitro transcription processivity, 1 uM template, 37 C; conditions: tags: yeast RNAP II from D. Bushnell and R. Kornberg; circular, stem-loop
# Excerpt: (§1) Chem. Soc. 117, 7818-7819 (1995)) (FIG. 5b, gel region “a”). As a relative measure of transcriptional processivity, we calculated the ratio of the radioactivity incorporated in the rolling circle transcripts (FIG. 5b, gel region “a” in lanes 3, 6, 9) to the sum of all shorter transcripts (gel region “b”). Lower a/b ratios indicate lower processivity. […] Thus, the ability to initiate promoterless transcription on coligo templates appears to have been retained during RNAP evolution, while the processivity needed for RCT appears to have been lost.
# (§2) In vitro transcription (IVT). IVT using WCE, uniform labeling with [α-³²P]-UTP and the linear or circular (coligo) templates was performed as follows. A typical 20 μl reaction contained 25 μg total WCE protein, 20 units RNase inhibitor (Promega) 1.25 mM each ATP, CTP, GTP, 0.2 mM UTP, (except FIG. 5b, which contained 1.25 mM each NTP), ˜2 μCi [α-³²P]-UTP, 40 mM Tris-HCl pH 7.9, 6 mM MgCl₂, 10 mM DTT, 2 mM spermidine, 100 μM NaCl); 100 nM template unless otherwise indicated. IVT using E. coli RNA polymerase (USB) was carried out in 40 mM Tris-HCl, pH 8.0, 10 mM MgCl₂, 5 mM DTT, 50 mM KCl, 50 μg/ml BSA), 1 μM coligo template, 1.25 mM NTP, ˜2 μCi [α-³²P]-UTP, 1 unit/μl RNAse inhibitor. […] Images and quantitation were performed using MD ImageQuant software. […]
# RNA polymerase = RNA polymerase (Escherichia coli, UniProt P0A7Z4;P0A8V2;P0A8T7;P0A800 P0A7Z4:1-329,P0A8V2:1-1342,P0A8T7:1-1407,P0A800:2-91); assay: in vitro transcription processivity, 10 mM MgCl2, 37 C; conditions: tags: USB; chain copies: 2,1,1,1; circular, stem-loop
# Excerpt: as §1, §2
# Chain of RNA polymerase (P0A7Z4 whole entry, chain 1 of 4): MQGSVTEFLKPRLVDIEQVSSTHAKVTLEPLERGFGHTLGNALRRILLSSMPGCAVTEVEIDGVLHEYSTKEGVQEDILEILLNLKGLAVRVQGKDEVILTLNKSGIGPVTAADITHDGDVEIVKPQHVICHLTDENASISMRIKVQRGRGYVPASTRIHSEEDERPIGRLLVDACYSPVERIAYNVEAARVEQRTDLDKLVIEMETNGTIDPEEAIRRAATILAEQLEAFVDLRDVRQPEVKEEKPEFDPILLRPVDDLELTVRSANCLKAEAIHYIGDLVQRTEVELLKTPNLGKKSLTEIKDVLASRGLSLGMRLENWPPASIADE
# Chain of RNA polymerase (P0A8V2 whole entry, chain 2 of 4): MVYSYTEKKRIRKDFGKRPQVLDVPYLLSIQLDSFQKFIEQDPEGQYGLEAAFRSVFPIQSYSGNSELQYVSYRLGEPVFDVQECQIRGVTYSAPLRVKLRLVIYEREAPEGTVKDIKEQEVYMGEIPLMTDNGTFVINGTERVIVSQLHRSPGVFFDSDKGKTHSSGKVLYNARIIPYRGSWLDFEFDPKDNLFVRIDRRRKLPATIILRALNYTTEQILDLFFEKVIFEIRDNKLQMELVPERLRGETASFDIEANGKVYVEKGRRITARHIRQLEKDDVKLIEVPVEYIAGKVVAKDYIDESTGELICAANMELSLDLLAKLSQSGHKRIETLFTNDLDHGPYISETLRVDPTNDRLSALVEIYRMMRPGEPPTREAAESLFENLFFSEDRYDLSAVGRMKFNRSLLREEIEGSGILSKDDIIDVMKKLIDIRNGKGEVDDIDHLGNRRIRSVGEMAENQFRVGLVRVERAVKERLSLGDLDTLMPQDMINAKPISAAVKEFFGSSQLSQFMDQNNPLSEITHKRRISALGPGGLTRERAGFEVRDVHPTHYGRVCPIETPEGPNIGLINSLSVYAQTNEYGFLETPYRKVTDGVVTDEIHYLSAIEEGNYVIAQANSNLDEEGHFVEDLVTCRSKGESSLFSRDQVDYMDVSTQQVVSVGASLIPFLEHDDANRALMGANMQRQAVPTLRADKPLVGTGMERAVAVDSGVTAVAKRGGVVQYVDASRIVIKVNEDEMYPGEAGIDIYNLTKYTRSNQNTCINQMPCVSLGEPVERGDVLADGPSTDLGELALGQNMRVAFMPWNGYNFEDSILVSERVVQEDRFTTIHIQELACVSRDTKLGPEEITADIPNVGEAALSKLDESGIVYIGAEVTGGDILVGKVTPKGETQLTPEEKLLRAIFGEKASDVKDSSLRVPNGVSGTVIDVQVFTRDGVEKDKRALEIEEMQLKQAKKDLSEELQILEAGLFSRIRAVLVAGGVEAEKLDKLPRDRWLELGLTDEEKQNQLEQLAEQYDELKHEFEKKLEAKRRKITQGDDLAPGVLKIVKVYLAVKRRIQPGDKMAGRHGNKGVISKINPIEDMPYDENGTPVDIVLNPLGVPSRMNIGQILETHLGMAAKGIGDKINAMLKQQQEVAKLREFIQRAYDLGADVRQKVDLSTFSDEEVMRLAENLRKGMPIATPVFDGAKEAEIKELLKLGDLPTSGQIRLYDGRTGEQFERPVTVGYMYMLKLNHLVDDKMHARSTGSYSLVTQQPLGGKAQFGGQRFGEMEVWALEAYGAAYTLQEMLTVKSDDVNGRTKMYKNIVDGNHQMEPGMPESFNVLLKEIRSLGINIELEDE
# Chain of RNA polymerase (P0A8T7 whole entry, chain 3 of 4): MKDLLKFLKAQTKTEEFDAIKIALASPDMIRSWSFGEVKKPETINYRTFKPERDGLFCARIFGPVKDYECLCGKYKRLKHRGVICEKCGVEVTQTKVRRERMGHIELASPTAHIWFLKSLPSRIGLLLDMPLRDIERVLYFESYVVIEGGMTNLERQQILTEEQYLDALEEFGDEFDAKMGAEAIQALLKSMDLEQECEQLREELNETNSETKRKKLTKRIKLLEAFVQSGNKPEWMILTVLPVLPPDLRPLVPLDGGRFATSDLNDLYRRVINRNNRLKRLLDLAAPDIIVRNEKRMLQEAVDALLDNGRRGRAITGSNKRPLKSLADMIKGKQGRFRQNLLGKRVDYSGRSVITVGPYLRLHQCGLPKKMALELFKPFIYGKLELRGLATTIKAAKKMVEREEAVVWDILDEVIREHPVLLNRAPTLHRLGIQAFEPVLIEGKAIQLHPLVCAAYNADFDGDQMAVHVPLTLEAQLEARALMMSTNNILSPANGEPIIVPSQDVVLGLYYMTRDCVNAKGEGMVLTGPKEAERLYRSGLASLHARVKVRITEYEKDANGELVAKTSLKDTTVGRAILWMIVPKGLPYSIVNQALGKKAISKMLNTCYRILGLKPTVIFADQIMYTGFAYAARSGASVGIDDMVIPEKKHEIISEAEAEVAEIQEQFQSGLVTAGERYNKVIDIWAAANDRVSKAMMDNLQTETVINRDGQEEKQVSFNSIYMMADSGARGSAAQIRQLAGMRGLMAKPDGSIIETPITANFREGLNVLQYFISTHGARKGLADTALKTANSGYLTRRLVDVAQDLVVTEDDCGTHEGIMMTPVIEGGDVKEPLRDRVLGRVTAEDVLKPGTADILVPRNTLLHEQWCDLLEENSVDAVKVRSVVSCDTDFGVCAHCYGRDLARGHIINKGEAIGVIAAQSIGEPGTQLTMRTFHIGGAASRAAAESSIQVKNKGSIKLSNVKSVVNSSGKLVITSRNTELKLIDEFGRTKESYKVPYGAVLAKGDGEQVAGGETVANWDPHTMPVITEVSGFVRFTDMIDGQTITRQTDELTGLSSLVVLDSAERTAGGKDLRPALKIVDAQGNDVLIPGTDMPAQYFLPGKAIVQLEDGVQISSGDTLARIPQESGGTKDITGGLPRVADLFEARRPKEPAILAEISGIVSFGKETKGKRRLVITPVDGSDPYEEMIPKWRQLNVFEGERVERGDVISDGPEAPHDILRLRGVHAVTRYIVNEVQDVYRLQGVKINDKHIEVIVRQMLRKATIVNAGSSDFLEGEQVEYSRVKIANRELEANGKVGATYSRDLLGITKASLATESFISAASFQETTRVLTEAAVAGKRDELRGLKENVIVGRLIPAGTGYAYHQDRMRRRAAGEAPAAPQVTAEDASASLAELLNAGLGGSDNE
# Chain of RNA polymerase (P0A800 2-91, chain 4 of 4): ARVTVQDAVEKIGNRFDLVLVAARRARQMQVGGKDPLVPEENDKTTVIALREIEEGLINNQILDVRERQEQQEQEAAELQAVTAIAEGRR
molecule,measurement,setting,value
CTCAGATCTGCCTGCAACTATGCAAAACTAACAGAGGACTGCAAACAAAAACTAGAAGGAAATAGCAGGCCACCATCAGTTTTGCATAGATTTGCACAACGGCAGAGAGCTCCCAGG [coligo 19aTAR (19am)],activity (nM transcript),[1],0.6
TTGCCTAGCAGTAGCTATTTAGTGTGATAATGGCGTTTGATAGTTTAGACACAAACACCATTGTCACACTCCACAGCTCTGCTAAGGAA [coligo 122],binding signal (RCT/short transcript ratio),[2],0.01
CTCAGATCTGCCTGCAACTATGCAAAACTAACAGAGGACTGCAAACAAAAACTAGAAGGAAATAGCAGGCCACCATCAGTTTTGCATAGATTTGCACAACGGCAGAGAGCTCCCAGG [linear 19aTAR],activity (% cyclization),[3],73
coligo 122 (structured_DNA) DNA: TTGCCTAGCAGTAGCTATTTAGTGTGATAATGGCGTTTGATAGTTTAGACACAAACACCATTGTCACACTCCACAGCTCTGCTAAGGAA,transcriptional processivity (rolling-circle/short transcript ratio),RNA polymerase II,0.3 RCT/short transcript ratio
same,binding signal,RNA polymerase,2.3 RCT/short transcript ratio
